Assay results: US20220136027

Target: T1, pentapeptide Gln-Pro-Gln-Gln-Pro
T1 chain: QPQQP

B1: FvePro4 (protein)
chain: ASRLSSRRWASSENMTKLDTTSRLNRLRGLMKERNVQIYIVPSEDSHSSEYIADCDARRAYISGFTGSAGCAVVTLESAALATDGRYFNQATSQLDSNWTLLKQGLQDVPTWQDWSAEQSSGGKNVGVDPTLISGSTAKNLAEKIRKNGGAELLPVDGNLVDLVWGDERPSRPSEQVIIQPDELAGESVLNKLTKVRQELEKKHSPGFLVSMLDEIAWLFNLRGNDIPYNPVFFAYATVTPDAAKLYIDEAKLDDKCRSHLTSNKVDIKPYETIFDDAQALHAAHAAKSKSGDKVPTGNFLISNKGSWALKRALGGDSSVDEIRSLIGDAKAIKTEAELKGMRDCHVRDGAALIQYFAWLEDQLVNKKATLDEVQAADKLEELRKVKKDFVGLSFPTISSTGANAAIIHYGPERGNCATIDPEAIYLCDSGAQYRDGTTDTTRTLHFGKPTEAEREAYTLVLKGHISLDQAIFPKGTTGFALDSLARQHLWKNGLDYRHGTGHGVGSFLNVHEGPIGIGTRVQYAEVALAPGNVLSNEPGYYEDGKYGIRIENMVLVKEVKTKHSFGDKPFLGFEYVTLVPYCRNLIDTTLLTSEEKEWLNTYNAKVLEKTQEYFEGDDVTLAWLKRETQHVE
pentapeptide hydrolysis (ninhydrin reaction, A570): all purified proteases are capable of hydrolyzing pentapeptide Gln-Pro-Gln-Gln-Pro
